According to article PMC4721865:

Tests used:
[1] = target: ASP1-GST fusion protein (aspartic protease ASP-1 of C. elegans) (C. elegans) (UniProt G5EEI4); experiment: ELISA; plates coated with 0.5 ug ASP-1/well in 20 mM HEPES pH 8.0, blocked with PBST 3% BSA, increasing concentrations of biotinylated toxin; specific binding = total minus binding with 1000-fold molar excess of unlabeled Cry6Aa
[2] = target: ASP1-GST fusion protein (aspartic protease ASP-1 of C. elegans) (C. elegans) (UniProt G5EEI4); experiment: ITC; 25 C, 20 mM HEPES pH 8.0; 21.16 uM Cry6Aa titrated into 2.20 uM ASP-1 in the cell, 20 injections of 10 uL

biotin-labeled crystal protein Cry6Aa (from UniProt Q45757 1-475) (natural protein)
Kd [1]: 146 nM

crystal protein Cry6Aa (unlabeled) (from UniProt Q45757 1-475) (natural protein)
Kd [2]: 126 nM
